Measurements reported in PMC10997794, “Seeding the meiotic DNA break machinery and initiating recombination on chromosome axes” (Nature Communications, 2024).

Target: T1, SUMO-His tagged HORMAD1 HORMA (residues 1-235) (mouse, UniProt Q9D5T7 1-235)
T1 construct: HORMAD1, mouse, HORMA domain, amino acids 1-235, from codon-optimized synthetic DNA; also called the HORMA domain of HORMAD1; source: E. coli BL21(DE3), purified (Talon, ion exchange, SEC); not shown: SUMO, N-terminal, kept; His, N-terminal, kept
T1 sequence (looked up): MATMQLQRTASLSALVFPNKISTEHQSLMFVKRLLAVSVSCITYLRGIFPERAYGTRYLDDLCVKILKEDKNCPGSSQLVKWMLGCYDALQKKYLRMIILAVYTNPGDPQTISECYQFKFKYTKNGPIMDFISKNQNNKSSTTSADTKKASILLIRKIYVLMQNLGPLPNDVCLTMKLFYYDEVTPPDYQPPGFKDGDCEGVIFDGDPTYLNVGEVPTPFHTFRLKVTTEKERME
Assay: pull-down; amylose pull-down; MBP-tagged IHO1 truncations as baits at 1 µM with 12 µM SUMO-His HORMAD1 HORMA; 20 mM HEPES pH 7.5, 100 mM NaCl, 5% glycerol, 1 mM TCEP, 0.1% Tween20; 8 °C; Coomassie and immunoblot
Conditions: both partners purified

B1: MBP-tagged IHO1 truncation, residues 359-574 (domain or fragment, mouse, UniProt Q6PDM4 359-574, looked up)
chain: KNWVMTTRSVSNHFSNLPSQRAGNGQGLMAQGASQRDVSKFEARVKNACPEYGPQSMCSFDSLEQSATEQKGRPCRKRRRGKKQQPQRSKRGGLLDRKQGQTSKAACAFIARHHCPQSPVCDPQGPLICWLTPRSSTKSTCHILGGTGETSQTARAAQGNLVQHSQRSSTDSSSQGDQQINWFSDLSLENLEPPQCKKGGTNLLCDPDFDSSDDNF
notes: The MBP tag is 3C HRV cleavable but was kept for the amylose pull-down; source: High Five insect cells (baculovirus), purified (MBP-trap, Resource Q, Superdex200); not shown: MBP, N-terminal, kept
- binding result: binds
